The values below come from publication doi:10.1101/2022.05.30.493996.

This test addresses Gp57 (purified) (phage SECΦ27). As to the kind of experiment: ITC. (In general: In ITC the heat of successive injections is recorded.)

For “CapRel^SJ46 (purified, full-length) (enzyme)”, the Kd was found to be 190 nM.

As a reminder, the Kd is a measure of binding affinity in units of concentration.
